Molecular target: biotinylated soluble human CD56 (human) (UniProt P13591)
Assay: flow cytometry of 56-28z-LNGFR transduced T cells stained with biotinylated soluble human CD56 (y axis 'sCD56 binding') against LNGFR (x axis). The other quadrants of this panel read 0.56 (upper left), 41.8 (lower left) and 33.1 (lower right). The sCD56 signal rises with LNGFR to about 10^3. The untransduced T cell control panel reads 0.57 (upper left), 0.27 (upper right), 97.6 (lower left) and 1.61 (lower right).

56-28z CAR (scFv of murine anti-human CD56 antibody N901 fused to CD28/CD3z domains)
quadrant number, cells positive for sCD56 binding and for LNGFR (upper right quadrant): 24.5%

From US20180230214A1
